Results as given in PMC10464304, “Refined read‐out: The hUHRF1 Tandem‐Tudor domain prefers binding to histone H3 tails containing K4me1 in the context of H3K9me2/3” (Protein Science : A Publication of the Protein Society, 2023).

Assays:
[1] = target: T1, fluorescently labeled H3 peptide with K9me2 (Homo sapiens); test: FP; details: domain or fragment; chains chain; modification not given; K9me2 (dimethyl-lysine at 9); FITC-labeled
T1 chain: ARTKQTARKSTGGKAPRKQ

[2] = target: T2, fluorescently labeled H3 peptide carrying only K4me1 (Homo sapiens); test: FP; details: domain or fragment; chains chain; modification not given; K4me1 (monomethyl-lysine at 4); FITC-labeled
T2 chain: ARTKQTARKSTGGKAPRKQ

[3] = target: T3, fluorescently labeled H3 peptide with K4me1 and K9me2 (Homo sapiens); test: FP; details: domain or fragment; chains chain; modification not given; K4me1 (monomethyl-lysine at 4); K9me2 (dimethyl-lysine at 9); FITC-labeled
T3 chain: ARTKQTARKSTGGKAPRKQ

[4] = target: T4, fluorescently labeled H3 peptide without modification (Homo sapiens); test: FP; details: domain or fragment; chains chain; modification not given; FITC-labeled
T4 chain: ARTKQTARKSTGGKAPRKQ

[5] = target: fluorescently labeled H3 peptide with K4me1 and K9me2; test: fluorescence polarisation; fluorescence anisotropy titration; 100 nM FITC-labeled peptide in the cuvette, protein added stepwise; 23°C; 100 mM KCl, 20 mM HEPES pH 7.5, 10% v/v glycerol

B1: GST-fused Tandem-Tudor domain (TTD) of human UHRF1, residues 126-280, wild type, Q96T88 126-280 (protein)
chain: MWDETELGLYKVNEYVDARDTNMGAWFEAQVVRVTRKAPSRDEPCSSTSRPALEEDVIYHVKYDDYPENGVVQMNSRDVRARARTIIKWQDLEVGQVVMLNYNPDNPKERGFWYDAEISRKRETRTARELYANVVLGDDSLNDCRIIFVDEVFKI
Kd [1]: 640 nM
Kd [2]: 3640 nM
Kd [3]: 300 nM
Kd [4]: > 9000 nM

B2: GST-fused Tandem-Tudor domain (TTD) of human UHRF1, residues 126-280, wild type (domain or fragment)
chain: MWDETELGLYKVNEYVDARDTNMGAWFEAQVVRVTRKAPSRDEPCSSTSRPALEEDVIYHVKYDDYPENGVVQMNSRDVRARARTIIKWQDLEVGQVVMLNYNPDNPKERGFWYDAEISRKRETRTARELYANVVLGDDSLNDCRIIFVDEVFKI
fold preference over the H3K9me2 peptide [5]: > 2 fold
